Ends that are not written are not given here. * marks the point of attachment. Biotin = O=C1N[C@H]2[C@H](CS[C@H]2CCCCC(=O)*)N1
T1: FLAG-γ1-COP (N-terminal FLAG-tagged human γ1-COP) (human, UniProt Q9Y678 1-874)
T1 sequence (looked up): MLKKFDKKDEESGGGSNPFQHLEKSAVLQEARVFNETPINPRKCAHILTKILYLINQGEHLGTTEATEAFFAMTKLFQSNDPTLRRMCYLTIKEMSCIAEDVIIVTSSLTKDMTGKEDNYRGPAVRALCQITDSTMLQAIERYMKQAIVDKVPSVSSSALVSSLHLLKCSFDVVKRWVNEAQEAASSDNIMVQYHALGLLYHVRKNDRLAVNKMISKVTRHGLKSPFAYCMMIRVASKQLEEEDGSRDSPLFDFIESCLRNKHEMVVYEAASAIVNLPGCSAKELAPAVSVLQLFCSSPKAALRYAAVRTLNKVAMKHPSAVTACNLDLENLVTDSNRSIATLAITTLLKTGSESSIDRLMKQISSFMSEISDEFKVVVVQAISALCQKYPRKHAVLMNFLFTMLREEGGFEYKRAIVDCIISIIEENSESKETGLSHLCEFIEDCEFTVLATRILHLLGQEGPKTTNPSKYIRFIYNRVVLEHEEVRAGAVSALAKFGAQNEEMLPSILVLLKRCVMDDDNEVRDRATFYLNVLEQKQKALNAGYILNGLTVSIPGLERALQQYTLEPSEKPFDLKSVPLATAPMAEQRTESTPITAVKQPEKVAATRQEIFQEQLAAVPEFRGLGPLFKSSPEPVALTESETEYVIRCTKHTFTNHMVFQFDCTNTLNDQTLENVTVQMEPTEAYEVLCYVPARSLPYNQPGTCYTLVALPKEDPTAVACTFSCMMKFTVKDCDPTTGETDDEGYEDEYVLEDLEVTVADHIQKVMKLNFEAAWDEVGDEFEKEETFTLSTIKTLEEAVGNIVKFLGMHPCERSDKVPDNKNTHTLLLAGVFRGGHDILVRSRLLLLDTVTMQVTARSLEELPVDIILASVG


Columns and labels:
[1] = biological target: T1, FLAG-γ1-COP (N-terminal FLAG-tagged …); assay: pull-down
[2] = biological target: T1, FLAG-γ1-COP (N-terminal FLAG-tagged …); assay: co-IP

| Binder | binding result [1] | binding result [2] |
| --- | --- | --- |
| Biotin-TGIRYSRIGNKQTL [biotin-tagged WT HPV16 L2 peptide (residues T299 to L312)] | binds | – |
| HA-(Δ1–67) L2-3xFLAG (domain or fragment, HPV16, UniProt P03107 68-473, looked up) GRTGYIPLGTRPPTATDTLAPVRPPLTVDPVGPSDPSIVSLVEETSFIDAGAPTSVPSIPPDVSGFSITTSTDTTPAILDINNTVTTVTTHNNPTFTDPSVLQPPTPAETGGHFTLSSSTISTHNYEEIPMDTFIVSTNPNTVTSSTPIPGSRPVARLGLYSRTTQQVKVVDPAFVTTPTKLITYDNPAYEGIDVDNTLYFSSNDNSINIAPDPDFLDIVALHRPALTSRRTGIRYSRIGNKQTLRTRSGKSIGAKVHYYYDLSTIDPAEEIELQTITPSTYTTTSHAASPTSINNGLYDIYADDFITDTSTTPVPSVPSTSLSGYIPANTTIPFGGAYNIPLVSGPDIPINITDQAPSLIPIVPGSPQYTIIADAGDFYLHPSYYMLRKRRKRLPYFFSDVSLAA | – | binds |

Reference: PMC9858521 (Science Advances, 2023)
